Data published in FireProtDB (doi:10.1093/protein/12.6.497).

Details: Sus scrofa, pH 7, 20 °C, GdnHCl, Fluorescence, PIPES 50 mM, reversible: yes

Substance	ddG of mutation (higher = less stable) (structure 1P2P) [kcal/mol]	denaturant m value (structure 1P2P) [kcal/mol/M]	denaturant midpoint (higher = more stable) (structure 1P2P) [M]	unfolding free energy (structure 1P2P) [kcal/mol]	denaturant m value [kcal/mol/M]	denaturant midpoint (higher = more stable) [M]	unfolding free energy [kcal/mol]
Phospholipase A2, major isoenzyme H70K, P00592	3.21	0.65	5.2	3.3	–	–	–
Phospholipase A2, major isoenzyme H70N, P00592	2.28	0.84	5.1	4.23	–	–	–
Phospholipase A2, major isoenzyme H70Q, P00592	1.03	0.91	6.1	5.48	–	–	–
Phospholipase A2, major isoenzyme wild type, P00592	–	–	–	–	1	6.4	6.51
